Measurements: patent publication US20240344030A1 (CARTESIAN THERAPEUTICS, published 2024)

Columns and labels:
[1] = molecular target: T1, CD3 on (CD3+) T cells (human, UniProt P07766 23-207; P09693 23-182; P04234 22-171; P20963 22-164); test: flow cytometry; 10 µg/mL scFv on 50,000 CD3+ T cells; anti-FLAG FITC detection
T1 construct: whole, on cells; also called CD3 protein multi-subunit complex

[2] = molecular target: T2, rhBCMA-Fc Chimera (R&D Systems 193-BC-050) (human, Disulfide-linked homodimer (the 25th table, row 5); one copy of the chain is given.); test: BLI full kinetics; rhBCMA-Fc captured on AHC sensor; analyte 1.56-50 nM; bivalent (avidity)
T2 construct: Disulfide-linked dimer, bought; also called immobilized BCMA

[3] = molecular target: T2, rhBCMA-Fc Chimera (R&D Systems …); test: BLI (Octet) scouting; rhBCMA-Fc captured on AHC sensor; analyte 100 nM; 1:1 local fit
[4] = molecular target: T3, Human CD3ε&CD3δ heterodimeric Fc Chimera (ACRO Biosystems CDD-H52W0) (human, UniProt P07766 22-126, Disulfide-linked heterodimer through the Fc parts that are left off.); test: BLI (Octet) scouting; rhCD3ε/δ-Fc captured on AHC sensor; analyte 2000 nM; 1:1 local fit
T3 construct: Disulfide-linked heterodimer, bought; also called rhCD3ε/δ-Fc; rhCD3ε/CD3δ-Fc

[5] = molecular target: T3, Human CD3ε&CD3δ heterodimeric Fc …; test: BLI full kinetics; rhCD3ε/δ-Fc captured on AHC sensor; analyte 15.6-125 nM; monovalent (affinity)

T2 sequence (chain, as listed by the source mutant limits assumed): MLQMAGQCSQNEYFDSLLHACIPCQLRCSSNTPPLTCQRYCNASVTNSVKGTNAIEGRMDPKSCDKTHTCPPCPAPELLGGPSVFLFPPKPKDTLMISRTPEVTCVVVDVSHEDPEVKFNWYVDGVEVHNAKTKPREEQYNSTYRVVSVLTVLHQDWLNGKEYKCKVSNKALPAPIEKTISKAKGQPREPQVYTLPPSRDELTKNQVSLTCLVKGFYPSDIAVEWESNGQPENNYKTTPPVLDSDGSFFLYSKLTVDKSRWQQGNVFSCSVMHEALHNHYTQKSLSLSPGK
T1 sequence (P07766 23-207, form in doubt, chain 1 of 4): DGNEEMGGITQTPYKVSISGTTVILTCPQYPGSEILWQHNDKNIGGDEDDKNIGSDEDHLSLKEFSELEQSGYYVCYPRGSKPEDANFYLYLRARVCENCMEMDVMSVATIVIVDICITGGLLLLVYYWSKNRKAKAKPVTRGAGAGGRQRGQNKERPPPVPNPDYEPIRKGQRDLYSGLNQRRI
T1 sequence (P09693 23-182, form in doubt, chain 2 of 4): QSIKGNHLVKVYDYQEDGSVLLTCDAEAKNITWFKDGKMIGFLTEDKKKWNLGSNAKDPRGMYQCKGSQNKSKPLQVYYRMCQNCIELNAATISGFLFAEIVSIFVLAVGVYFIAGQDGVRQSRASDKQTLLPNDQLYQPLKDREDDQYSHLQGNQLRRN
T1 sequence (P04234 22-171, form in doubt, chain 3 of 4): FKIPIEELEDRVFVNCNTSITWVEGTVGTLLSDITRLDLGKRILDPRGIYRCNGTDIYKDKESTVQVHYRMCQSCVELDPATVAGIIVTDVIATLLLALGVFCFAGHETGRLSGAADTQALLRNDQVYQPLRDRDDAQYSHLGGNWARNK
T1 sequence (P20963 22-164, form in doubt, chain 4 of 4): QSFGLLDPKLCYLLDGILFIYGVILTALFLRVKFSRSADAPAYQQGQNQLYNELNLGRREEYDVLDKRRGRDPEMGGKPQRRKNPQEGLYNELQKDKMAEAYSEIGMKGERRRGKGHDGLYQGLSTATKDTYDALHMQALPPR
T3 sequence (P07766 22-126 limits assumed, stated change not applied, chain 1 of 2): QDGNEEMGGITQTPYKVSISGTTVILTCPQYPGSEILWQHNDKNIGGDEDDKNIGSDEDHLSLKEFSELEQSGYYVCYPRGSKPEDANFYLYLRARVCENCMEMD
T3 sequence (delta, as listed by the source mutant limits assumed, chain 2 of 2): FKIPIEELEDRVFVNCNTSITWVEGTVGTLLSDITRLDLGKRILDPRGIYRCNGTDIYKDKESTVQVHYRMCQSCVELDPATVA

B1: Vulcanodon-1 anti-CD3 scFv (SEQ ID NO: 2), FLAG and His-tagged version (scFv)
scFv: QVQLVQSGAEVKKPGASVKVSCKASGYTFTRYTMHWVRQAPGQGLEWIGYINPSKGYTNYNQKFKGRVTMTADKSTSTAYMELSSLRSEDTAVYYCARYYDDHYSLDYWGQGTLVTVSSGGGGSGGGGSGGGGSGGGGSEIVMTQSPATLSLSPGERVTLSCRASSSVSYMNWYQQKSGTSPKRWIYDTSKVASGVPYRFSGSGSGTDFTLTISSLQAEDEATYYCQQWSSNPLTFGQGTKLEIK
notes: also called Var 1; not shown: FLAG and His tags
Question: For B1, which “CD3 Binding (increase in MFI)” value [1] is on record?
Answer: 20 MFI

B2: Vulcanodon-4 anti-CD3 scFv (SEQ ID NO: 5), FLAG and His-tagged version (scFv)
scFv: QVQLVQSGAEVKKPGASVKVSCKASGYTFTRYTMHWVKQRPGQGLEWIGYINPSKGYTNYNQKFKGRVTMTADKSTSTAYMELSSLRSEDTAVYYCARYYDDHYSLDYWGQGTLVTVSSGGGGSGGGGSGGGGSGGGGSQIVLTQSPAIMSASPGEKVTMTCRASSSVSYMNWYQQKSGTSPKRWIYDTSKVASGVPYRFSGSGSGTDFTLTISSLQAEDEATYYCQQWSSNPLTFGQGTKLEIK
notes: also called Var 4; not shown: FLAG and His tags
Question: For B2, which “CD3 Binding (increase in MFI)” value [1] is on record?
Answer: 27 MFI

B3: Vulcanodon-2 anti-CD3 scFv (SEQ ID NO: 3), FLAG and His-tagged version (scFv)
scFv: QVQLVQSGAEVKKPGASVKVSCKASGYTFTRYTMHWVRQAPGQGLEWIGYINPSRGYTNYNQKFKGRVTMTADKSTSTAYMELSSLRSEDTAVYYCARYYDDHYSLDYWGQGTTVTVSSGGGGSGGGGSGGGGSGGGGSEIVMTQSPATLSLSPGERVTLSCRASSSVSYMNWYQQKSGTSPKRWIYDTSKVASGVPYRFSGSGSGTDFTLTISSLQAEDEATYYCQQWSSNPLTFGAGTKLEIK
notes: also called Var 2; not shown: FLAG and His tags
Question: With B3 as the binder, how does the “CD3 Binding (increase in MFI)” value [1] read?
Answer: 24 MFI

B4: Vulcanodon-3 anti-CD3 scFv (SEQ ID NO: 4), FLAG and His-tagged version (scFv)
scFv: QVQLVQSGAEVKKLGASVKVSCKASGYTFTRYTMHWVKQAPGQGLEWIGYINPSRGYTNYNQKFQGRVTMTRDTSISTAYMELSRLRSDDTAVYYCARYYDDHYSLDYWGQGTLVTVSSGGGGSGGGGSGGGGSGGGGSDIQMTQSPSSLSASVGDRVTITCRASSSVSYMNWYQQKSGTSPKRWIYDTSKVASGVPYRFSGSGSGTDFTLTISSLQPEDFATYYCQQWSSNPLTFGAGTKLEIK
notes: also called Var 3; not shown: FLAG and His tags
Question: With B4 as the binder, how does the “CD3 Binding (increase in MFI)” value [1] read?
Answer: 24 MFI

B5: Vulcanodon-C2 anti-CD3 scFv (SEQ ID NO: 8), FLAG and His-tagged version (scFv)
scFv: QVQLQQSGAELARPGASVKMSCKTSGYTFTRYTMHWVKQRPGQGLEWMGIINPSGGSTSYAQKFKDKATLTTDKSSSTAYMQLSSLTSEDSAVYYCARYYDDHYSLDYWGQGTTLTVSSGGGGSGGGGSGGGGSGGGGSQIVLTQSPAIMSASPGEKVTMTCRASSSVSYMNWYQQKSGQAPRLLIYGASTRATGIPYRFSGSGSGTSYSLTISSMEAEDAATYYCQQWSSNPLTFGAGTKLELK
notes: also called Var CDR2; not shown: FLAG and His tags
Question: For B5, which “CD3 Binding (increase in MFI)” value [1] is on record?
Answer: ~0 MFI

B6: Vulcanodon-C1 anti-CD3 scFv (SEQ ID NO: 7), FLAG and His-tagged version (scFv)
scFv: QVQLQQSGAELARPGASVKMSCKTSGYTFTGYYMHWVKQRPGQGLEWIGYINPSRGYTNYNQKFKDKATLTTDKSSSTAYMQLSSLTSEDSAVYYCARYYDDHYSLDYWGQGTTLTVSSGGGGSGGGGSGGGGSGGGGSQIVLTQSPAIMSASPGEKVTMTCRASQSISSYLNWYQQKSGTSPKRWIYDTSKVASGVPYRFSGSGSGTSYSLTISSMEAEDAATYYCQQWSSNPLTFGAGTKLELK
notes: also called Var CDR1; not shown: FLAG and His tags
Question: With B6 as the binder, how does the “CD3 Binding (increase in MFI)” value [1] read?
Answer: ~0 MFI

B7: bispecific antibody of SEQ ID NO: 138 (with a C-terminal Myc-Flag tag of SEQ ID NO: 141) (bispecific antibody)
chain: DIVLTQSPASLAVSPGQRATISCRASESVSFLGINLIHWYQQKPGQPPKLLIYLASNLETGVPARFSGSGSGTDFTLTISSVEPEDTANYYCLQSRTLPRTFGQGTKVEIKGSTSGSGKPGSGEGSTKGQIQLVQSGPELKKPGGSVKISCKASGYTFTSYSINWVRQAPGKGLEWVGWINTETREPAYAQGFTGRFTFSADTSKSMAYLQINSLRAEDTAVYYCALDYLYSLDFWGQGTLVTVSSGGGGSQVQLVQSGAEVKKPGASVKVSCKASGYTFTRYTMHWVRQAPGQGLEWIGYINPSKGYTNYNQKFKGRVTMTADKSTSTAYMELSSLRSEDTAVYYCARYYDDHYSLDYWGQGTLVTVSSGGGGSGGGGSGGGGSGGGGSEIVMTQSPATLSLSPGERVTLSCRASSSVSYMNWYQQKSGTSPKRWIYDTSKVASGVPYRFSGSGSGTDFTLTISSLQAEDEATYYCQQWSSNPLTFGQGTKLEIKSSGGSGGSGGSGGSGGSGGSGGSGGSGGSGSDIVLTQSPASLAVSPGQRATISCRASESVSFLGINLIHWYQQKPGQPPKLLIYLASNLETGVPARFSGSGSGTDFTLTISSVEPEDTANYYCLQSRTLPRTFGQGTKVEIKGSTSGSGKPGSGEGSTKGQIQLVQSGPELKKPGGSVKISCKASGYTFTSYSINWVRQAPGKGLEWVGWINTETREPAYAQGFTGRFTFSADTSKSMAYLQINSLRAEDTAVYYCALDYLYSLDFWGQGTLVTVSSGGSLEQKLISEEDLAANDILDYKDDDDKV
notes: Single chain: anti-BCMA scFv, anti-CD3 scFv, anti-BCMA scFv; also called DC10xP15-MycDDK; DC10xP15
Question: Which results are given for B7?
Answer: Kd [2]: < 0.001 nM; koff [2]: < 1e-07 s⁻¹; kon [2]: 226000 M⁻¹ s⁻¹; Kd [3]: 0.116 nM; Kd [4]: 9.76 nM; Kd [5]: 3.02 nM; koff [5]: 0.00199 s⁻¹; kon [5]: 660000 M⁻¹ s⁻¹
